Data reported in patent US5777085, “Humanized antibodies reactive with GPIIB/IIIA” (Protein Design Labs, Inc., dated 1998).

These binders were tested against GPIIb/IIIa (human, UniProt P08514) (assay: competitive binding on HEL 92.1.7 cells, radioiodinated mouse C4G1 as tracer).
Description: The affinities of the humanized C4G1 antibody, Fab fragment and F(ab')_2-1 fragment were determined by competitive binding with the respective mouse C4G1 antibody and fragments. Purified human platelets were used as source of the GPIIb/IIIa antigen. The platelets were purified from buffy coats from normal human donors by centrifugation on ficoll-hypaque. Increasing amounts of humanized or mouse competitor antibody or fragment was added to 4.5 ng of radioiodinated tracer C4G1 antibody (3.5 µCi/ug) and incubated with 3×10^7 platelets in 0.2 ml of modified Tyrode's buffer for 1 hr. at room temperature. Cells were washed with 2 ml of ice-cold buffer and pelleted. The radioactivities were measured, and the concentrations of bound and free tracer antibody were calculated (FIG. 8). The binding affinities of the various antibodies and fragments were calculated as in Queen et al., Proc. Nat. Acad. Sci. USA 86, 10029 (1989). […] The same result was obtained when competitive binding was performed with HEL 92.1.7 cells as source of GPIIb/IIIa antigen. Moreover all the actual binding affinities to these cells were about 10^8 M^-1 or higher.

Binder	Ka [M⁻¹]
humanized C4G1 antibody (antibody, V domains shown) VH: QVQLVQSGAEVKKPGSSVKVSCKASGYAFTNYLIEWVRQAPGQGLEWIGVIYPGSGGTNYNEKFKGRVTLTVDESTNTAYMELSSLRSEDTAVYFCARRDGNYGWFAYWGQGTLVTVSS VL: DIQMTQTPSTLSASVGDRVTISCRASQDINNYLNWYQQKPGKAPKLLIYYTSTLHSGVPSRFSGSGSGTDYTLTISSLQPDDFATYFCQQGNTLPWTFGQGTKVEVKR	> 1e+08
mouse C4G1 F(ab')2 fragment (other) VH: QVQLQQSGAELVGPGTSVRVSCKASGYAFTNYLIEWVKQRPGQGLEWIGVIYPGSGGTNYNEKFKGKATLTVDKSSTTAYMQLSSLTSDDSAVYFCARRDGNYGWFAYWGRGTLVTVSA VL: DIQMTQTTSSLSASLGDRVTISCRASQDINNYLNWYQQKPDGIVKLLIYYTSTLHSGVPSRFSGSGSGTDYSLTISNLEQEDIATYFCQQGNTLPWTFGGGTKLEIK	≥ 1e+08

The next lines start with the values.

Ka [M⁻¹]	Binder
≥ 1e+08	mouse C4G1 antibody (antibody, V domains shown) VH: QVQLQQSGAELVGPGTSVRVSCKASGYAFTNYLIEWVKQRPGQGLEWIGVIYPGSGGTNYNEKFKGKATLTVDKSSTTAYMQLSSLTSDDSAVYFCARRDGNYGWFAYWGRGTLVTVSA VL: DIQMTQTTSSLSASLGDRVTISCRASQDINNYLNWYQQKPDGIVKLLIYYTSTLHSGVPSRFSGSGSGTDYSLTISNLEQEDIATYFCQQGNTLPWTFGGGTKLEIK
≥ 1e+08	mouse C4G1 Fab fragment (Fab, V domains shown) VH: QVQLQQSGAELVGPGTSVRVSCKASGYAFTNYLIEWVKQRPGQGLEWIGVIYPGSGGTNYNEKFKGKATLTVDKSSTTAYMQLSSLTSDDSAVYFCARRDGNYGWFAYWGRGTLVTVSA VL: DIQMTQTTSSLSASLGDRVTISCRASQDINNYLNWYQQKPDGIVKLLIYYTSTLHSGVPSRFSGSGSGTDYSLTISNLEQEDIATYFCQQGNTLPWTFGGGTKLEIK
